Experimental data from patent EP1899377B1 (GLAXO GROUP LIMITED, dated 2012).

T1: GST-human NOGO-A56 (human, UniProt Q9NQC3 586-785)
T1 construct: GST-tagged fusion expressed in E. coli BL21 from pGEX-6P1; also called hNOGO; human NOGO 5+6 GST; not shown: Glutathione S-transferase tag encoded by vector pGEX-6P1 (N-terminal, with vector linker)
T1 sequence: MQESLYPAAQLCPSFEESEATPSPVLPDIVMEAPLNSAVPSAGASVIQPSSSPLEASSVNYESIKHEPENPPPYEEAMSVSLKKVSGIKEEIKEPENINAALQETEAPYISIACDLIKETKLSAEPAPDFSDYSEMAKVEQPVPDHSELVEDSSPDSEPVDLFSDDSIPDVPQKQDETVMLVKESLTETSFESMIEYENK


How the values were obtained:
[1] = biological target: T1, GST-human NOGO-A56; assay: SPR (Biacore T100), reverse format: antibody captured on Protein A, human NOGO 5+6 GST as analyte, 1:1 model; mean (SD) of 5 or 6 runs
[2] = biological target: T1, GST-human NOGO-A56; assay: SPR off-rate ranking, supernatant from small-scale transient transfection over immobilised GST-human NOGO-A56; single experiment
[3] = biological target: T1, GST-human NOGO-A56; assay: SPR (Biacore), GST-human NOGO-A56 immobilised, purified antibody as analyte; single experiment
[4] = biological target: T1, GST-human NOGO-A56; assay: as above; remark: listed apart in the source
[5] = biological target: T1, GST-human NOGO-A56; assay: as above; remark: listed apart in the source
[6] = biological target: T1, GST-human NOGO-A56; assay: SPR (Biacore), GST-human NOGO-A56 immobilised, purified antibody as analyte; mean (SD) of 12 runs
[7] = biological target: T1, GST-human NOGO-A56; assay: SPR (Biacore), GST-human NOGO-A56 immobilised, purified antibody as analyte; single experiment (value said to be not typical)

Kd [1]	koff [1]	kon [1]	koff [2]	Kd [3]	koff [3]	kon [3]	Kd [4]	koff [4]	kon [4]	Kd [5]	koff [5]	kon [5]	Kd [6]	koff [6]	kon [6]	Kd [7]	koff [7]	kon [7]	Binder
0.41 nM	0.000569 s⁻¹	1.38e+06 M⁻¹ s⁻¹	0.00392 s⁻¹	1.59 nM	0.00369 s⁻¹	2.32e+06 M⁻¹ s⁻¹	1.42 nM	0.0035 s⁻¹	2.46e+06 M⁻¹ s⁻¹	1.7 nM	0.0044 s⁻¹	2.6e+06 M⁻¹ s⁻¹	1.9 nM	0.00754 s⁻¹	3.92e+06 M⁻¹ s⁻¹				HcLc (antibody, human IgG1, kappa, V domains shown, also called chimera of 2A10; 2A10 chimeric antibody) VH: QVQLQQPGTELVKPGASVKLSCKASGYTFTSYWMHWVKQRPGQGLEWIGNINPSNGGTNYNEKFKSKATLTVDKSSSTAYMQLSSLTSEDSAVYYCELGQGYWGQGTLVTVSS VL: DIVITQDELSNPVTSGESVSISCRSSKSLLYKDGKTYLNWFLQRPGQSPQLLIYLMSTRASGVSDRFSGSGSGTDFTLEISRVKAEDVGVYYCQQLVEYPLTFGAGTKLELKR
			0.00577 s⁻¹													3.4 nM	0.004 s⁻¹	1.2e+06 M⁻¹ s⁻¹	H16L16 (antibody, human IgG1, kappa) heavy: not shown light: DIVMTQSPLSNPVTLGQPVSISCRSSKSLLYKDGKTYLNWFLQRPGQSPQLLIYLMSTRASGVPDRFSGGGSGTDFTLKISRVEAEDVGVYYCQQLVEYPLTFGQGTKLEIKRTVAAPSVFIFPPSDEQLKSGTASVVCLLNNFYPREAKVQWKVDNALQSGNSQESVTEQDSKDSTYSLSSTLTLSKADYEKHKVYACEVTHQGLSSPVTKSFNRGEC
0.31 nM	0.000313 s⁻¹	1.01e+06 M⁻¹ s⁻¹	0.00718 s⁻¹				1.61 nM	0.00847 s⁻¹	5.24e+06 M⁻¹ s⁻¹	1.7 nM	0.0073 s⁻¹	4.4e+06 M⁻¹ s⁻¹	1.86 nM	0.0102 s⁻¹	5.43e+06 M⁻¹ s⁻¹				H20L16 (antibody, human IgG1, kappa, V domains shown, human gamma1 mutated constant region, human kappa; also called H20L16 FL) VH: QVQLVQSGAEVKKPGASVKVSCKASGYTFTSYWMHWVRQAPGQGLEWIGNINPSNGGTNYNEKFKSKATMTRDTSTSTAYMELSSLRSEDTAVYYCELGQGYWGQGTLVTVSS VL: DIVMTQSPLSNPVTLGQPVSISCRSSKSLLYKDGKTYLNWFLQRPGQSPQLLIYLMSTRASGVPDRFSGGGSGTDFTLKISRVEAEDVGVYYCQQLVEYPLTFGQGTKLEIKR
